The target of this experiment is alpha fetal protein (AFP) (Homo sapiens, UniProt P02771). As to the kind of experiment: ELISA. For orientation: An ELISA detects its analyte on a solid surface through an enzyme-linked reagent.
Sequence of alpha fetal protein (AFP) (P02771 19-609): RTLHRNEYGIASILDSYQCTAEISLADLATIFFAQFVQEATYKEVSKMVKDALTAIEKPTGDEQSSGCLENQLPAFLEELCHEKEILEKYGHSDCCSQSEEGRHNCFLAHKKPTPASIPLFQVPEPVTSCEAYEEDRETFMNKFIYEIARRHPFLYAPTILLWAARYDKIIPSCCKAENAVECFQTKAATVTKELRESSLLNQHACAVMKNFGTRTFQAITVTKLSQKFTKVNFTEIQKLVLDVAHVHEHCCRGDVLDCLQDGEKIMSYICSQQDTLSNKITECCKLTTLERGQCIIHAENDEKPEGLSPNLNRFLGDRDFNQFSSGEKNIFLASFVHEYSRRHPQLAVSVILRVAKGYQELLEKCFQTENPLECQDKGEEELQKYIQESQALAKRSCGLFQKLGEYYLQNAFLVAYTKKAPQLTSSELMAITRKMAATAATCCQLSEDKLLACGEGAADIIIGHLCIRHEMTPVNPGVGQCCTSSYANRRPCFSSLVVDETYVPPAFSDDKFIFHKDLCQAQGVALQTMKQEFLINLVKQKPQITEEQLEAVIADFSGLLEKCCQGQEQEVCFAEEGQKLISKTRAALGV

B1: anti-AFP nanobody A2, phage-displayed (VHH)
VHH: QVQLVESGGGLVQAGGSLGLSCAASGLGFSIVAGGWFRQAPGKERELVAAIGTGTGDINYGDSVKGRFTISSDSAKNTVYLQMNSLKPEDTAVYFCATTERYYTGSYDSRARPQSYGYWGQGTQVTVSS
Turning to B1, the binding result is “binds”.

B2: anti-AFP nanobody A1, phage-displayed (VHH)
VHH: QVQLVESGGGLVQSGGSLRLSCAASMRGFRIVAGGWYRQSPGKQRELVADINYQDDTNYGDFVKGRFTISRDSAKNTLYLQMNSLKPEDTAVYYCSALSVIGNEFWGQGTQVTVSS
Regarding B2, the binding result is “binds”.

The values above are taken from PMC9054930 (RSC Advances, 2020).
